Measured values taken from publication PMC314469, “Protein Interaction Networks by Proteome Peptide Scanning” (PLoS Biology, 2004).

T1: amphyphisin SH3 (AMPH_HUMAN), P49418
T1 chain: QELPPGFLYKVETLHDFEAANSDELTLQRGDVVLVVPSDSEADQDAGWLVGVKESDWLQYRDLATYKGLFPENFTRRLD


How the values were obtained:
[1] = molecular target: T1, amphyphisin SH3 (AMPH_HUMAN), P49418; assay: SPOT array
[2] = molecular target: endophilin SH3 (SH3G2_HUMAN), Q99962; assay: SPOT array

Binder	normalised SPOT signal, Boehringer light units (BLU); mean over the file's lines of this peptide [1]	normalised SPOT signal, Boehringer light units (BLU); mean over the file's lines of this peptide [2]
GSESLSRPWRARAK [O94851 799-812]	248	91.7
GSGKPSRPSKPIVA [Q15598 1240-1253]	125	1350
GSEKPKRPVSAMFI [P17480 403-416]	39.3	2530
GSQVPERPPKPFPR [P22681 815-829]	1710	13600
GRTPPARPPQDPAE [BAC05028 186-200]	69	129
ALLVPVKPPTAWEG [Q8TCB4 82-96]	2.4	55.1
GSPEPKRPGVSEAA [Q9UN79 64-77]	26.6	17.9
GSSSPSRPPGLSSN [BAC05127 110-124]	72.7	318
GSELPRRPLPPAAQ [P04818 4-17]	40.1	70.6
GSPAPKRPPDPFPG [O43593 424-437]	51.3	706
GRSALRRPWRKSGS [Q9BR44 22-35]	531	160

Further lines, results first:

normalised SPOT signal, Boehringer light units (BLU); mean over the file's lines of this peptide [1]	normalised SPOT signal, Boehringer light units (BLU); mean over the file's lines of this peptide [2]	Binder
27.5	39.6	GSSALKRPFEDGLG [Q9BXG4 352-365]
372	2350	GSEPPRRPPPAPHD [P48634 1687-1701]
32.2	16.6	GSGSPVRPPVSTWG [Q9NUB4 27-41]
423	62500	GSQAPARPPKPRPR [Q13191 898-911]
55.2	52.2	GSVELRRPPAHQVM [Q15142 511-524]
36.4	2140	GSALPRRPLLSIPA [Q01974 4-17]
